# Target: IgG class antibody in the serum of a patient with IgA nephropathy which showed positive in example 1
# Test: inhibition ELISA: serum pre-incubated with 1 µg/ml peptide solution (1:1), then added to immobilized hinge peptide-BSA; anti-human IgG, absorbancy at 490 nm
row,Binder,difference in the absorption between the added group and the blank solution
1,PSPST [synthetic peptide Pro Ser Pro Ser Thr],> 10%
2,PSPSC [synthetic peptide Pro Ser Pro Ser Cys],> 10%
3,PSTPP [synthetic peptide Pro Ser Thr Pro Pro],> 10%
4,PTPSP [synthetic peptide Pro Thr Pro Ser Pro],> 10%
5,TPPTP [synthetic peptide Thr Pro Pro Thr Pro],> 10%
6,PVPST [synthetic peptide Pro Val Pro Ser Thr],> 10%
